Reference: patent US20250073311A1, “DOSAGE REGIME” (ZEALAND PHARMA A/S, priority 2021, published 2025)
Numbered stars: 1 amine (or outer) side, 2 acyl side, 3 side chain; on linkers, the order of the positions; unused ones are H or OH. Square brackets hold non-standard residues; d marks the D form. Side chains are listed from the residue outwards. * marks the point of attachment. C18 diacid = O=C(O)CCCCCCCCCCCCCCCCC(=O)*; γGlu = O=C(O)[C@H](CCC(=O)[*:2])N[*:1]; Aib = CC(C)(N)C(=O)O

B1: Compound 22 (peptide)
peptide: H-H[Aib]EGSFTSELATILDK([γGlu-C18 diacid])QAARDFIAWLIAHKITD-OH
SMILES: CC[C@H](C)[C@H](NC(=O)[C@H](CC(C)C)NC(=O)[C@H](Cc1c[nH]c2ccccc12)NC(=O)[C@H](C)NC(=O)[C@@H](NC(=O)[C@H](Cc1ccccc1)NC(=O)[C@H](CC(=O)O)NC(=O)[C@H](CCCNC(=N)N)NC(=O)[C@H](C)NC(=O)[C@H](C)NC(=O)[C@H](CCC(N)=O)NC(=O)[C@H](CCCCNC(=O)CC[C@H](NC(=O)CCCCCCCCCCCCCCCCC(=O)O)C(=O)O)NC(=O)[C@H](CC(=O)O)NC(=O)[C@H](CC(C)C)NC(=O)[C@@H](NC(=O)[C@@H](NC(=O)[C@H](C)NC(=O)[C@H](CC(C)C)NC(=O)[C@H](CCC(=O)O)NC(=O)[C@H](CO)NC(=O)[C@@H](NC(=O)[C@H](Cc1ccccc1)NC(=O)[C@H](CO)NC(=O)CNC(=O)[C@H](CCC(=O)O)NC(=O)C(C)(C)NC(=O)[C@@H](N)Cc1c[nH]cn1)[C@@H](C)O)[C@@H](C)O)[C@@H](C)CC)[C@@H](C)CC)C(=O)N[C@@H](C)C(=O)N[C@@H](Cc1c[nH]cn1)C(=O)N[C@@H](CCCCN)C(=O)N[C@H](C(=O)N[C@H](C(=O)N[C@@H](CC(=O)O)C(=O)O)[C@@H](C)O)[C@@H](C)CC
B2: Compound 26 (peptide)
peptide: H-H[Aib]EGSFTSELATILDK([γGlu-C18 diacid])QAARDFIAWLIHHKITD-OH
SMILES: CC[C@H](C)[C@H](NC(=O)[C@H](Cc1ccccc1)NC(=O)[C@H](CC(=O)O)NC(=O)[C@H](CCCNC(=N)N)NC(=O)[C@H](C)NC(=O)[C@H](C)NC(=O)[C@H](CCC(N)=O)NC(=O)[C@H](CCCCNC(=O)CC[C@H](NC(=O)CCCCCCCCCCCCCCCCC(=O)O)C(=O)O)NC(=O)[C@H](CC(=O)O)NC(=O)[C@H](CC(C)C)NC(=O)[C@@H](NC(=O)[C@@H](NC(=O)[C@H](C)NC(=O)[C@H](CC(C)C)NC(=O)[C@H](CCC(=O)O)NC(=O)[C@H](CO)NC(=O)[C@@H](NC(=O)[C@H](Cc1ccccc1)NC(=O)[C@H](CO)NC(=O)CNC(=O)[C@H](CCC(=O)O)NC(=O)C(C)(C)NC(=O)[C@@H](N)Cc1c[nH]cn1)[C@@H](C)O)[C@@H](C)O)[C@@H](C)CC)C(=O)N[C@@H](C)C(=O)N[C@@H](Cc1c[nH]c2ccccc12)C(=O)N[C@@H](CC(C)C)C(=O)N[C@H](C(=O)N[C@@H](Cc1c[nH]cn1)C(=O)N[C@@H](Cc1c[nH]cn1)C(=O)N[C@@H](CCCCN)C(=O)N[C@H](C(=O)N[C@H](C(=O)N[C@@H](CC(=O)O)C(=O)O)[C@@H](C)O)[C@@H](C)CC)[C@@H](C)CC
B3: Compound 27 (peptide)
peptide: H-H[Aib]EGSFTSELATILDK([γGlu-C18 diacid])QAARDFIAWLIYHKITD-OH
SMILES: CC[C@H](C)[C@H](NC(=O)[C@H](Cc1ccccc1)NC(=O)[C@H](CC(=O)O)NC(=O)[C@H](CCCNC(=N)N)NC(=O)[C@H](C)NC(=O)[C@H](C)NC(=O)[C@H](CCC(N)=O)NC(=O)[C@H](CCCCNC(=O)CC[C@H](NC(=O)CCCCCCCCCCCCCCCCC(=O)O)C(=O)O)NC(=O)[C@H](CC(=O)O)NC(=O)[C@H](CC(C)C)NC(=O)[C@@H](NC(=O)[C@@H](NC(=O)[C@H](C)NC(=O)[C@H](CC(C)C)NC(=O)[C@H](CCC(=O)O)NC(=O)[C@H](CO)NC(=O)[C@@H](NC(=O)[C@H](Cc1ccccc1)NC(=O)[C@H](CO)NC(=O)CNC(=O)[C@H](CCC(=O)O)NC(=O)C(C)(C)NC(=O)[C@@H](N)Cc1c[nH]cn1)[C@@H](C)O)[C@@H](C)O)[C@@H](C)CC)C(=O)N[C@@H](C)C(=O)N[C@@H](Cc1c[nH]c2ccccc12)C(=O)N[C@@H](CC(C)C)C(=O)N[C@H](C(=O)N[C@@H](Cc1ccc(O)cc1)C(=O)N[C@@H](Cc1c[nH]cn1)C(=O)N[C@@H](CCCCN)C(=O)N[C@H](C(=O)N[C@H](C(=O)N[C@@H](CC(=O)O)C(=O)O)[C@@H](C)O)[C@@H](C)CC)[C@@H](C)CC
B4: Compound 25 (peptide)
peptide: H-H[Aib]EGTFTSELATILDK([γGlu-C18 diacid])QAARDFIAWLIEHKITD-OH
SMILES: CC[C@H](C)[C@H](NC(=O)[C@H](Cc1ccccc1)NC(=O)[C@H](CC(=O)O)NC(=O)[C@H](CCCNC(=N)N)NC(=O)[C@H](C)NC(=O)[C@H](C)NC(=O)[C@H](CCC(N)=O)NC(=O)[C@H](CCCCNC(=O)CC[C@H](NC(=O)CCCCCCCCCCCCCCCCC(=O)O)C(=O)O)NC(=O)[C@H](CC(=O)O)NC(=O)[C@H](CC(C)C)NC(=O)[C@@H](NC(=O)[C@@H](NC(=O)[C@H](C)NC(=O)[C@H](CC(C)C)NC(=O)[C@H](CCC(=O)O)NC(=O)[C@H](CO)NC(=O)[C@@H](NC(=O)[C@H](Cc1ccccc1)NC(=O)[C@@H](NC(=O)CNC(=O)[C@H](CCC(=O)O)NC(=O)C(C)(C)NC(=O)[C@@H](N)Cc1c[nH]cn1)[C@@H](C)O)[C@@H](C)O)[C@@H](C)O)[C@@H](C)CC)C(=O)N[C@@H](C)C(=O)N[C@@H](Cc1c[nH]c2ccccc12)C(=O)N[C@@H](CC(C)C)C(=O)N[C@H](C(=O)N[C@@H](CCC(=O)O)C(=O)N[C@@H](Cc1c[nH]cn1)C(=O)N[C@@H](CCCCN)C(=O)N[C@H](C(=O)N[C@H](C(=O)N[C@@H](CC(=O)O)C(=O)O)[C@@H](C)O)[C@@H](C)CC)[C@@H](C)CC
B5: Compound 24 (peptide)
peptide: H-H[Aib]EGSFTSELATILDK([γGlu-C18 diacid])QAARDFIAWLIEHKITD-OH
SMILES: CC[C@H](C)[C@H](NC(=O)[C@H](Cc1ccccc1)NC(=O)[C@H](CC(=O)O)NC(=O)[C@H](CCCNC(=N)N)NC(=O)[C@H](C)NC(=O)[C@H](C)NC(=O)[C@H](CCC(N)=O)NC(=O)[C@H](CCCCNC(=O)CC[C@H](NC(=O)CCCCCCCCCCCCCCCCC(=O)O)C(=O)O)NC(=O)[C@H](CC(=O)O)NC(=O)[C@H](CC(C)C)NC(=O)[C@@H](NC(=O)[C@@H](NC(=O)[C@H](C)NC(=O)[C@H](CC(C)C)NC(=O)[C@H](CCC(=O)O)NC(=O)[C@H](CO)NC(=O)[C@@H](NC(=O)[C@H](Cc1ccccc1)NC(=O)[C@H](CO)NC(=O)CNC(=O)[C@H](CCC(=O)O)NC(=O)C(C)(C)NC(=O)[C@@H](N)Cc1c[nH]cn1)[C@@H](C)O)[C@@H](C)O)[C@@H](C)CC)C(=O)N[C@@H](C)C(=O)N[C@@H](Cc1c[nH]c2ccccc12)C(=O)N[C@@H](CC(C)C)C(=O)N[C@H](C(=O)N[C@@H](CCC(=O)O)C(=O)N[C@@H](Cc1c[nH]cn1)C(=O)N[C@@H](CCCCN)C(=O)N[C@H](C(=O)N[C@H](C(=O)N[C@@H](CC(=O)O)C(=O)O)[C@@H](C)O)[C@@H](C)CC)[C@@H](C)CC
B6: Compound 23 (peptide)
peptide: H-H[Aib]EGTFTSELATILDK([γGlu-C18 diacid])QAARDFIAWLIAHKITD-OH
SMILES: CC[C@H](C)[C@H](NC(=O)[C@H](CC(C)C)NC(=O)[C@H](Cc1c[nH]c2ccccc12)NC(=O)[C@H](C)NC(=O)[C@@H](NC(=O)[C@H](Cc1ccccc1)NC(=O)[C@H](CC(=O)O)NC(=O)[C@H](CCCNC(=N)N)NC(=O)[C@H](C)NC(=O)[C@H](C)NC(=O)[C@H](CCC(N)=O)NC(=O)[C@H](CCCCNC(=O)CC[C@H](NC(=O)CCCCCCCCCCCCCCCCC(=O)O)C(=O)O)NC(=O)[C@H](CC(=O)O)NC(=O)[C@H](CC(C)C)NC(=O)[C@@H](NC(=O)[C@@H](NC(=O)[C@H](C)NC(=O)[C@H](CC(C)C)NC(=O)[C@H](CCC(=O)O)NC(=O)[C@H](CO)NC(=O)[C@@H](NC(=O)[C@H](Cc1ccccc1)NC(=O)[C@@H](NC(=O)CNC(=O)[C@H](CCC(=O)O)NC(=O)C(C)(C)NC(=O)[C@@H](N)Cc1c[nH]cn1)[C@@H](C)O)[C@@H](C)O)[C@@H](C)O)[C@@H](C)CC)[C@@H](C)CC)C(=O)N[C@@H](C)C(=O)N[C@@H](Cc1c[nH]cn1)C(=O)N[C@@H](CCCCN)C(=O)N[C@H](C(=O)N[C@H](C(=O)N[C@@H](CC(=O)O)C(=O)O)[C@@H](C)O)[C@@H](C)CC
B7: Compound 28 (peptide)
peptide: H-H[Aib]EGSFTSELATILDK([γGlu-C18 diacid])QAARDFIAWLILHKITD-OH
SMILES: CC[C@H](C)[C@H](NC(=O)[C@H](Cc1ccccc1)NC(=O)[C@H](CC(=O)O)NC(=O)[C@H](CCCNC(=N)N)NC(=O)[C@H](C)NC(=O)[C@H](C)NC(=O)[C@H](CCC(N)=O)NC(=O)[C@H](CCCCNC(=O)CC[C@H](NC(=O)CCCCCCCCCCCCCCCCC(=O)O)C(=O)O)NC(=O)[C@H](CC(=O)O)NC(=O)[C@H](CC(C)C)NC(=O)[C@@H](NC(=O)[C@@H](NC(=O)[C@H](C)NC(=O)[C@H](CC(C)C)NC(=O)[C@H](CCC(=O)O)NC(=O)[C@H](CO)NC(=O)[C@@H](NC(=O)[C@H](Cc1ccccc1)NC(=O)[C@H](CO)NC(=O)CNC(=O)[C@H](CCC(=O)O)NC(=O)C(C)(C)NC(=O)[C@@H](N)Cc1c[nH]cn1)[C@@H](C)O)[C@@H](C)O)[C@@H](C)CC)C(=O)N[C@@H](C)C(=O)N[C@@H](Cc1c[nH]c2ccccc12)C(=O)N[C@@H](CC(C)C)C(=O)N[C@H](C(=O)N[C@@H](CC(C)C)C(=O)N[C@@H](Cc1c[nH]cn1)C(=O)N[C@@H](CCCCN)C(=O)N[C@H](C(=O)N[C@H](C(=O)N[C@@H](CC(=O)O)C(=O)O)[C@@H](C)O)[C@@H](C)CC)[C@@H](C)CC

Each binder was assayed against human glucagon-like peptide 1 receptor (GLP-1R) (human, UniProt P43220) (assay: cell-based or functional assay).

Row | EC50 GLP-1 (nM), cAMP AlphaScreen [nM] | Binder
1 | 0.23 | B1
2 | 0.29 | B2
3 | 0.45 | B3
4 | 0.094 | B4
5 | 0.21 | B5
6 | 0.13 | B6
7 | 0.36 | B7

What follows are binders tested against T1, human GLP-2 receptor (hGLP2-R) (human, UniProt O95838) (assay: cell-based or functional assay).
T1 sequence: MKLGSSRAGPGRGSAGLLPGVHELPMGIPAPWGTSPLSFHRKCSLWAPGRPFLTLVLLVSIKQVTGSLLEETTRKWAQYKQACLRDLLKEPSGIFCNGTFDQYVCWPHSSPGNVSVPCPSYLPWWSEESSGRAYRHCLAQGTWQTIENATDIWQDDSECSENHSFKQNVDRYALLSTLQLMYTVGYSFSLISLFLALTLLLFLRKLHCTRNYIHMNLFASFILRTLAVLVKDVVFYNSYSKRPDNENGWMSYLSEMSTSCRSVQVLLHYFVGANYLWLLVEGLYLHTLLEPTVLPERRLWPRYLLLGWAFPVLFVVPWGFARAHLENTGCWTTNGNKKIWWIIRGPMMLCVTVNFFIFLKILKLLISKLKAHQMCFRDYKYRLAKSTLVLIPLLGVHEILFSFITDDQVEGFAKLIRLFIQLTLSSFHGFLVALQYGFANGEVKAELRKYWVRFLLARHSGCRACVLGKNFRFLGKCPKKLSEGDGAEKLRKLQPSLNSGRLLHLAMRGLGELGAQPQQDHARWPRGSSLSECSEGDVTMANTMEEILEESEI

Row | EC50 GLP-2 (nM), cAMP AlphaScreen [nM] | Binder
8 | 0.2 | B1
9 | 0.59 | B2
10 | 1.1 | B3
11 | 0.33 | B4
12 | 0.17 | B5
13 | 0.24 | B6
14 | 0.51 | B7
